{
  "source": "paper PMC9508239",
  "about": "(Nature Communications, 2022)",
  "molecular_target": "the molecule itself",
  "experiment": "cryo-EM structure; purified MmIR dimer fraction (20 mM Hepes-Na pH 7.4, 150 mM NaCl, 0.03% DDM) mixed with synthesized S597-component-2 (S597-N20) at 1:4 (m:m), incubated half an hour, 4 °C, concentrated to 6 mg/ml",
  "data": [
    {"protein": "full-length mouse insulin receptor, short isoform, with kinase-dead mutation D1122N and mutation Y962F (receptor, UniProt P15208 28-1372, looked up, insulin receptor, mouse, short isoform (A isoform), full length; Disulfide-linked dimer; The proreceptor is written as one chain; An HRV-3C site lay between the receptor and Tsi3; also called MmIR; IR; source: FreeStyle 293-F cells (BacMam), purified (DDM extraction, Tse3 resin, HRV-3C elution, Superose 6; dimer fraction); not shown: Tsi3, C-terminal, cleaved) HLYPGEVCPGMDIRNNLTRLHELENCSVIEGHLQILLMFKTRPEDFRDLSFPKLIMITDYLLLFRVYGLESLKDLFPNLTVIRGSRLFFNYALVIFEMVHLKELGLYNLMNITRGSVRIEKNNELCYLATIDWSRILDSVEDNYIVLNKDDNEECGDVCPGTAKGKTNCPATVINGQFVERCWTHSHCQKVCPTICKSHGCTAEGLCCHKECLGNCSEPDDPTKCVACRNFYLDGQCVETCPPPYYHFQDWRCVNFSFCQDLHFKCRNSRKPGCHQYVIHNNKCIPECPSGYTMNSSNLMCTPCLGPCPKVCQILEGEKTIDSVTSAQELRGCTVINGSLIINIRGGNNLAAELEANLGLIEEISGFLKIRRSYALVSLSFFRKLHLIRGETLEIGNYSFYALDNQNLRQLWDWSKHNLTITQGKLFFHYNPKLCLSEIHKMEEVSGTKGRQERNDIALKTNGDQASCENELLKFSFIRTSFDKILLRWEPYWPPDFRDLLGFMLFYKEAPYQNVTEFDGQDACGSNSWTVVDIDPPQRSNDPKSQTPSHPGWLMRGLKPWTQYAIFVKTLVTFSDERRTYGAKSDIIYVQTDATNPSVPLDPISVSNSSSQIILKWKPPSDPNGNITHYLVYWERQAEDSELFELDYCLKGLKLPSRTWSPPFESDDSQKHNQSEYDDSASECCSCPKTDSQILKELEESSFRKTFEDYLHNVVFVPRPSRKRRSLEEVGNVTATTLTLPDFPNVSSTIVPTSQEEHRPFEKVVNKESLVISGLRHFTGYRIELQACNQDSPDERCSVAAYVSARTMPEAKADDIVGPVTHEIFENNVVHLMWQEPKEPNGLIVLYEVSYRRYGDEELHLCVSRKHFALERGCRLRGLSPGNYSVRVRATSLAGNGSWTEPTYFYVTDYLDVPSNIAKIIIGPLIFVFLFSVVIGSIYLFLRKRQPDGPMGPLYASSNPEFLSASDVFPSSVYVPDEWEVPREKITLLRELGQGSFGMVYEGNAKDIIKGEAETRVAVKTVNESASLRERIEFLNEASVMKGFTCHHVVRLLGVVSKGQPTLVVMELMAHGDLKSHLRSLRPDAENNPGRPPPTLQEMIQMTAEIADGMAYLNAKKFVHRNLAARNCMVAHDFTVKIGDFGMTRDIYETDYYRKGGKGLLPVRWMSPESLKDGVFTASSDMWSFGVVLWEITSLAEQPYQGLSNEQVLKFVMDGGYLDPPDNCPERLTDLMRMCWQFNPKMRPTFLEIVNLLKDDLHPSFPEVSFFYSEENKAPESEELEMEFEDMENVPLDRSSHCQREEAGGREGGSSLSIKRTYDEHIPYTHMNGGKKNGRVLTLPRSNPS", "values": [
      {"measurement": "binding result", "value": "binds"}
    ]}
  ]
}
